# Reference: the DeepSol protein solubility set
# Assay: soluble on expression in E. coli; label from the status in PepcDB or PDB records
row,Sequence,soluble on expression in E. coli
1,MACFSSLSTGVLDMYDLIIVGGGPSGASAGRVAGKAGISTLLIEKENFPRYKPCGGALSPYALSCLDFKLPEYLIEKDISRIRVHFRELCTEMQKDYSIALLVSRKAFDNFLLDKARETGIDIHSGEKVLDCEEGEECVEVRTSQNTYLAKFVLIAEGSEGVLKYSVRKRKDRRTEYDLALVSEIPERDKVIRKRFPNAIDMHFGIASGGYGWIFPHSEHYSVGIVGTAEHLKHPKAVMQDFLQANGFSGDFQVHSHIIPVGGIKRKTISSRILLSGDAAGFVDAFIGEGISYAIRSGQLAAENVAEIVLYNRKLSDLKEYETSCRKEFGNFLSSSLKLEKAMHRFPETSFRLALSRKEIIDKYLEEVVINRSHKDYVRWLLLNFSLSEPASKIKSIKDKNQLEHHHHHH,not soluble
2,MAHHHHHHSLMLKKNDIIQVAISDLSHEGAGVAKHDGFVFFVDNALPEEVIDMRVLKVNKNSGFGKVEAYHYLSSARNADVNLTYLRTGIADLGHLTYEDQLTFKKKQVQDSLYKIAGISDVTVESTIGMTEPLAYRNKAQVPVRRVNGQLETGFFRKHSHDLIPISDYYIQDKEIDRLINFTRDLLRRFDIKPYDETEQTGLLRNIVVRRGHYSGEMMLVLVTTRPKVFRVDQVIEKIVEAFPAVVSIIQNINDKNTNAIFGKDFKTLYGKDTITDSMLGNNYAISAQSFYQVNTVMAEKLYQTAIAFSDLSKDDIVIDAYSGIGTIGLSFAKTVKAVYGVEVIEAAVRDAQQNAALNGITNAYFVADTAEHAMATWAKDGIKPSVILVDPPRKGLTESFIQASVAMGPQKITYVSCNPATMARDIKRYQELGYKLAKVQPVDLFPQTHHVECVVLLIKEEG,not soluble
3,MSKNLLIELGLEELPAYVVTPSEKQLGERLATFLTENRLSFEDIQTFSTPRRLAVRVSGLADQQTDLTEDFKGPAKKIALDADGNFSKAAQGFVRGKGLTTDAIEFREVKGEEYVYVTKHEAGKPAKEVLLGVTEVLSAMTFPVSMHWANNSFEYIRPVHTLTVLLNDEALELDFLDIHSGRVSRGHRFLGTETTITSADSYEADLRSQFVIADAKERQEMIVEQIKTLEVEQGVQVDIDEDLLNEVLNLVEFPTAFMGSFEAKYLDVPEEVLVTSMKNHQRYFVVRDQAGHLMPNFVSVRNGNDQAIENVIKGNEKVLVARLEDGEFFWREDQKLQIADLVAKLTNVTFHEKIGSLAEHMDRTRVIAASLAKEANLSAEEVTAVDRAAQIYKFDLLTGMVGEFDELQGIMGEKYALLAGEDAAVATAIREHYLPDAAGGALPETKVGAVLALAAKLDTLLSFFSVGLIPSGSNDPYALRRATQGIVRILDHFGWRIPMDKLVDSLYDLSFDSLTYANKADVMNFIRARVDKMMGKAAPKDIREAILASSTFV,not soluble
4,MAMNLLEDWCRGMEVDIHRSLLVTGIPEDCGQAEIEETLNGVLSPLGPYRVLNKIFVREENVKAALIEVGEGVNLSTIPREFPGRGGVWRVVCRDPTQDAEFLKNLNEFLDAEGRTWEDVVRLLQLNHPTLSQNQHQPPENWAEALGVLLGAVVQIIFCMDAEIRSREEARAQEAAEFEEMAAWALAAGRKVKKEPGLAAEVGSALKAETPNNWNATEDQHEPTKPLVRRAGAKSRSRRKKQKKNSRQEAVPWKKPKGINSNSTANLEDPEVGDAESMAISEPIKGSRKPCVNKEELALKKPMAKCAWKGPREPPQDARAEAESPGGASESDQDGGHESPPKKKAVAWVSAKNPAPMRKKKKVSLGPVSYVLVDSEDGRKKPVMPKKGPGSRREASDQKAPRGQQPAEATASTSRGPKAKPEGSPRRATNESRKV,soluble
5,MLEVLVALAIFATAAISVIRSVSQHINTVSYLEEKMFAAMVVDNQMANVMLDTGALKAKNGTEELAGRTWYWKVTPVATTQPLLKAFDVSVATAKNASPVVTVRSYVAQ,not soluble
6,SPTNLANGLSSLLKPLKFFHLPIDEISLMLALSLRFVPTLMDETGKIMNAQRARGVDFGEGNIFQQMRSLVPIFIPQFIASFNRADELATAMESRGYRGAAKRTKFNRLKFK,not soluble
7,MGSDKIHHHHHHMSISEQCVIEIDKYIDYFKKNTSQPNILAKLFKTDSSYYVYDTGTNKVLTCGEYEYSILGKIIDNKFDEISRINDDADKSGFYEALENVRQAIEKEDILRGGKEWKFVSKGHFEELDKKLNYELDQITLELTEKCNLRCRYCIYNESYEHKRNFGNKDMPIEIAEKAIDYANLHSGKEKGVGVTFYGGEPLVNFKLLKHSIEYSRKVIKDKKLTFSLTSNLTLMTPEIATYLASIENLTILCSIDGPEEIHDSYRKDINGNGTFKRAIRGLKYLIEAFGDKANKAVMMNMVFTPPYSIEKVNKIETFINSLDWLPKGLRISMTYPSTGSVDDTPPKGCEKNYGMELIQWSESKYKSELKSDGKIDMFNEEFVVHPILRIHGRRISAKSESGYPVNGCCIPGSRKLYVTVDGNFQICERINGSPIIGNVFNGIDENKIKNEVIDEFINKSIKDCSRCWAARLCNVCYSHCYTDGKLDMKEKKRYCIRSRERALRSLVFYHKCAEINPEKLKYLNKIEVS,not soluble
8,SANTSFLLRKKIFAKLMRITTPSHDHYGSSTLLVRLTNDVYLMEVIAFDFL,not soluble
9,DIELTQTPVSLAASLGDRVTISCRASQDINNFLNWYQQKPDGTIKLLIYYTSRLHAGVPSRFSGSGSGTDYSLTISNLEPEDIATYFCQHHIKFPWTFGAGTKLEIK,soluble
10,MAHHHHHHMLRCAPSKLFRATPLLRVWAAEEDDASAPRTTFRNVRPGRLLRLWRQMRHRAWMLYAWDEEWVSPMQEGYLHQQRLEQVCFAPLSAYGVVPGSYCDPLLYNTKSTSPFRWHVANVQGDIVGHWYMDADELFRIEDWQPREPDDPLEMFPRPPPMLLRWDESVDEHGNRAFRYRYHYDMMGPTGKWEAYPRCPFSHLYHGGPDQHGRAEGYGFQQGHLLRCDEAEEEVLRRIMEGEDREWEMVKRTEAVQEPWSYPGKIRPRDFEGAVERAKARFRERVRHGKETDPSEDPEYDLVQASEYVEPRDGRRAEWRHLWASGRKPGESLPFHVAFNDGLCFEGNEGGPPAHPAAHYEAAHYEAPYGRYEDADAAAARAAEAAHNAACEQSLSEAMARHRRLFGDTSGAPSGPKAPLPTGCRPMRCAPGPPLPSGRSRSSGARAVGSGPVCGAGARDGESEGEGRGGEAPLGYGARACSWRRREGWV,not soluble
11,MGSDKIHHHHHHMESIVSWPKPRGLARHSGRKAMSSLSSLARIALSLSLPSGLLDRGPSLRGTKFLAKAALKARFGGASQPFQMVNVGACDGALFDDVTPWLHRIAGARAMLVEPIPYNQKRLRANYPDKERFIIEPVAVTKTKGTITVHTFDAAALEAGTLPIEFIGCSSVTDTNLMSGKNAWGEADANFNKFAPHLRDIEVPSETLQTLLDRNGISHIDAFLVDCEGADWMVFEQLDLKRYRPGLIKVEVGALPATEIGQVVVKLKTAGYQVGFQAEDVWAFA,not soluble
12,AHHHHHHGSKAMEFVGYKKSGKTTCVENVAKVLKKEKGYRVAIAKSMHSNFDKEETDTWKFSRIADYVIVHAQDIDGLLFKAKDVNALFSMVSADILLIEGFKSITHVPKVICAKSEEEVRELNNGLAIAVSGVIANKGIKEIDGLPVINATKEPEKLAELVEKKGFMLPNIDCGLCGYNCAEMAKLIVKGEKTVKDCVVLSSTPKVTIKIDGQVLPLKDWVQELVEKTIKGMLSAMKGYREGRKIEIVIKE,soluble
13,MVRELKRFGARFTFLFSARRMCPLMTAEGSLPSVEDFWGNCRIARAKGVCSYYEELSRLDEAEVAQYVRSRPVISAYRLAWDIAKFKGACPFFALKGLVEDSQFIVATYPYLFKEDIFRSFLEPYDYGDFVAVVDEAHSLLNIHSLHEYRVSQRDLDLALKEVREYASSARDFIAWLESVLKKASRLKVSRITLLDKQPFLEGLDDLSVVEDVVETIRARKAEEALSLSGPSGIGRVKTMASRIYSWLSVLVRDDSYLFAEKDEGGVLWLIATPLDPSRVVKEPLEKVKAAVLLSGTMPSTKLYMEVLGVSRSFKFVDVNLMYGARGFGRFFTIVAADVTTAYRSRGDSMYRLIASRIAMADRLLPGLKLAVYPSYEVMYRVVERLPADVETIVETRGISLDEVEAKILARDPGEKIIINAVAGGKLVEGVEFVDYEGRNLLSTVIVVGVPFPQPDDYTRKHLEVMASRIGVSNARKLVYLVNPMIKVRQALGRGIRGPEDRALYILMDYRYLRRDLKEVLGMPYHRVVKGAEDFEEAVKAARSRVFGG,soluble
14,MSLRTNEHNFHNIEEEIKHVAVYLRLSRGEDESELDNHKTRLLNRCELNNWSYELYKEIGSGSTIDDRPVMQKLLTDVEKNLYDAVLVVDLDRLSRGNGTDNDRILYSMKVSETLIVVESPYQVLDANNESDEEIILFKGFFARFEFKQINKRMREGKKLAQSRGQWVNSVTPYGYIVNKTTKKLTPSEEEAKVVIMIKDFFFEGKSTSDIAWELNKRKIKPRRATEWRSSSIANILQNEVYVGNIVYNKSVGNKKPSKSKTRVTTPYRRLPEEEWRRVYNAHQPLYSKEEFDRIKQYFECNVKSHKGSEGHHHHHH,soluble
15,MSLSSGGGQFIKPASGILTSGFSERTNPVTGKYESHKGQDIAGGGTVTVSAAASGTVVFSGFGASGSGFGGYGYVVKIDHGNGFQTLYGHMRAGSLKVVTGQQVSQGQPIGIMGSTGQSTGQHLHFEIHKNGIPVDPAPYIEGHHHHHH,soluble
16,MGSDKIHHHHHHIYWEFTTKNMLVLEFIEGIRIDDLESLNASKHNIKNITEIGTEVFFLQVFRDGFFHGDMHPGNILIDKEGALIPIDFGIMGRLSNKDRQFLALLLTYLLNKNYRKVVEIHDEANMLGKDVSHDHLSQAIRAISTPILNKPIGEVSLAKLLGQILSLSKKFNIEVQPQFTLLQKTMLMAEGTTRQINPNINMWELSRPLIDKWINDTHDPFKVLEEWFHKNKIALLKIPEIINKIDKILS,not soluble
17,MSLTMKDVALEAGVSVGTVSRVINKEKGIKEVTLRKVQRAIKTLDYIPDNYARGMKKNRTETIALIIPSIWHPFFSEFAYHVEKELLKYNYKLFICNADSDSQNEIEYIEMLKQNKVDGIIGITYSDIDKYILSDLPFVSIDRHFSENVCYVTSANYKGGQTAAEELVRRDNKHLAFIGSINMYENETILRSKGFREKAKELGVDVYNFEMKEPLINPEDQIRIFLQSHKEIDGIFTINDMMALRVISVMKELGKIAPDDYQIIGFDGLKTSVDQSYLVSTIVQDIGMMAKESVAMILKMIKREEILEKRIVIPTYFWGDKTTKKEGHHHHHH,soluble
18,KMNRKPTTKIISICLKKATGHVAEALGVEKATEVIVIERLRSLDNMPAIFEIDYFRKEDQFMLDLELTDTSLLDILRQYRGVIASYFDNIIEIALADEKLAEALAISEEEALVKINQTVVDNDNQILYFNEQYILSESYKVAIRSYNK,soluble
19,SLAMAAGANVPLDKANVDLTDKASLQNGAKLFMNYCFACHSTQYQRYERVATDLDIPADLMKENLIFNPEAKIGDLMVNAMPPKQAANWFGAPPPDLTLVARVRGADWLYTYLRSFYVDPSRPFGVNNIVFPSVGMPHVLEELQGIPTPVYGTKMVDGEEVKVVVGTETNGTGELSEGEYDKAVGDLVNFLVYAGDP,not soluble
20,MGSDKIHHHHHHVPRVARIKSKSGIYHIIMRGINRQIVFEENEDCVKFIQTLQKIQAICKYRLYAYCLMGNHLHLLLMEGTEPLGNVMRRICSSYVLWYNKKYDRVGYLFQDRFKSEPVEDDGYFLTVLRYIFQNPVKAGIVTKIKDYKWTNYTDYIEGSNKTDTDFVLDFFNTNRERAIRSFIEYINKTNDDKCLDIPGKRQLTDEDAKKIIKDHCHIYNALDLYKFDVNKRNQYLKELKEGYGLSIRQIERLTGIGRGIIQRA,not soluble
